± gives the uncertainty stated by the source.
Experiment: amyloid nucleation score (Sup35N fusion, yeast selection) (log enrichment); library NNK3; higher = more nucleation; inactive = no reads after selection
In short: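 Nucleation score: DiMSum log enrichment of output over input reads, centred on the mode score of non-aggregating sequences. Only sequences with at least 100 input reads were kept. Reads came from Illumina sequencing of plasmid inserts before and after 7 days of growth at 30°C without adenine and uracil, in psi-negative yeast expressing Sup35N fused to peptides of 20 random codons after 24 hours of induction with 100 μM copper sulfate.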
In the case of CKYSMRLDCLARNNDLKVLL, the amyloid nucleation score is reported as “inactive”.
In the case of WDLRSCCDNVSTFEL, the amyloid nucleation score is reported as “inactive”.
In the case of VLLPAGRIR, the amyloid nucleation score is reported as “inactive”.
For LHFVVFAYYKRLMDSQIC, the amyloid nucleation score was “inactive”.
In the case of AFPCFIVY, the amyloid nucleation score is reported as “inactive”.
With EQVFRYIL the amyloid nucleation score was “inactive”.
In the case of LSSSGIMFCFFVDGLRSLV, the amyloid nucleation score is reported as “inactive”.
With YLFLVRSQTLRVRYWTRNPP the amyloid nucleation score was “inactive”.
With IRGASYPSATNRHAAMLVWM the amyloid nucleation score was “inactive”.
With NKNQIDQASSWFPR the amyloid nucleation score was “inactive”.
NYSFWLAIYSPCRSKCYARC gave an amyloid nucleation score of 1.58 ± 0.057.
With PGLIVF the amyloid nucleation score was “inactive”.
For RYYCMYSSGEIRCSVSWGVW, the amyloid nucleation score was “inactive”.
In the case of VCRRTGSKITFGQWKVYFSS, the amyloid nucleation score is reported as “inactive”.
For YLSSSYVVGDMSCV, the amyloid nucleation score was “inactive”.
With ESGNS the amyloid nucleation score was “inactive”.
For LRYNRDVTS, the amyloid nucleation score was “inactive”.
Substance PLLLQWHHYNLLGRS has an amyloid nucleation score of 0.193 ± 0.69.
In the case of PTCGMDFVLQEYTKT, the amyloid nucleation score is reported as “inactive”.
For TCMHC, the amyloid nucleation score was “inactive”.
For LLVVY, the amyloid nucleation score was “inactive”.
With CIEWHAQGDFFLMICLYCPD the amyloid nucleation score was “inactive”.
For KIYIILNGWQVSLIDYYGGK, the amyloid nucleation score was 2.58 ± 0.056.
With LNKLTKIVVSHKGLCFELGG the amyloid nucleation score was “inactive”.
With VLLAIGWVGGIFCGIWAGSH the amyloid nucleation score was “inactive”.
For IISMVCED, the amyloid nucleation score was 0.297 ± 0.32.
In the case of RRLLSKGVKIVRLISDEVYC, the amyloid nucleation score is reported as “inactive”.
With LRCTVRSLAKFVFYRFKTGG the amyloid nucleation score was “inactive”.
For MHLDYGC, the amyloid nucleation score was “inactive”.
For WFVRLLGSAFN, the amyloid nucleation score was “inactive”.
In the case of PSTEI, the amyloid nucleation score is reported as “inactive”.
With LRFMRSI the amyloid nucleation score was “inactive”.
In the case of DLDIRIFMVHDPAYCSLCSF, the amyloid nucleation score is reported as “inactive”.
For WRVAYET, the amyloid nucleation score was “inactive”.
With SFTAYVASLA the amyloid nucleation score was -0.151 ± 1.1.
In the case of NTRLSMAF, the amyloid nucleation score is reported as “inactive”.
In the case of TLWCNLSSGMMNFPTASRNL, the amyloid nucleation score is reported as 1 ± 0.091.
With GSMSLIYYGLRRKVMGYVLS the amyloid nucleation score was 0.316 ± 0.7.
Substance WAGLHRVRFES has an amyloid nucleation score of -0.26 ± 0.42.
For VHLGSFDFIFLNMSSTRSLG, the amyloid nucleation score was “inactive”.
Work on FNMCLASQAVIADLWVVFSW yielded an amyloid nucleation score of -0.054 ± 1.3.
In the case of ILFNENITKMSLFNCDKFIC, the amyloid nucleation score is reported as 1.1 ± 0.15.
With LYYNYRGGYVYKNRDEVTLF the amyloid nucleation score was “inactive”.
With LLDENGGHYSSIRAISDGGI the amyloid nucleation score was “inactive”.
With QSRMPCSLFILVNGDHDDMA the amyloid nucleation score was “inactive”.
In the case of VFTDLCTYKTCTYVIPCTAE, the amyloid nucleation score is reported as “inactive”.
Substance IKAVSYTVSVSPPCFSSKSH has an amyloid nucleation score of 0.402 ± 0.18.
In the case of IKDGFQGNVFFAVDCFVAYD, the amyloid nucleation score is reported as “inactive”.
In the case of KRFGKMLLW, the amyloid nucleation score is reported as “inactive”.
For SVRLTIEMVTAVFRWGESMR, the amyloid nucleation score was 0.233 ± 0.32.
In the case of LASLTRLLDFMMSVENTYSA, the amyloid nucleation score is reported as “inactive”.
With LCRYRNSYICSGNIIWMCSL the amyloid nucleation score was “inactive”.
With HLWCKPRLWKSLFVPYD the amyloid nucleation score was “inactive”.
For TPNRGDFWITCSGGVGVWYG, the amyloid nucleation score was “inactive”.
For LCVRYDMSEGLRKGWWYGVG, the amyloid nucleation score was “inactive”.
VQPVGSSKGVRGVE gave an amyloid nucleation score of 0.983 ± 0.2.
For CGWMTHSEL, the amyloid nucleation score was “inactive”.
Substance ITMCIIHHRHLMATSFM has an amyloid nucleation score of 0.752 ± 0.18.
In the case of YILNC, the amyloid nucleation score is reported as “inactive”.
Substance KVTFKYLLKSVSLGQGTT has an amyloid nucleation score of 0.341 ± 0.28.
In the case of DFGHVIQSSWNSMNSAQSVA, the amyloid nucleation score is reported as “inactive”.
YSGFSYVRGLYGSGYVMAQP gave an amyloid nucleation score of -0.192 ± 0.52.
Work on YVLFCCCPLMDFITDLSLST yielded an amyloid nucleation score of 2.1 ± 0.055.
For CIVLLLTPSLGDWYTEDDFL, the amyloid nucleation score was “inactive”.
In the case of PVLSYSVLRYL, the amyloid nucleation score is reported as “inactive”.
For RLLGTRSYTIWACYTCAVFM, the amyloid nucleation score was 2.15 ± 0.088.
With NAALIVCLITFYVLGIFLAG the amyloid nucleation score was “inactive”.
In the case of LVVCKLRV, the amyloid nucleation score is reported as “inactive”.
With FRVSVIFIFGCHMFGVLMTP the amyloid nucleation score was “inactive”.
With SFRFWSFYTCGEYKWDGTKG the amyloid nucleation score was “inactive”.
In the case of QWFHVSLS, the amyloid nucleation score is reported as “inactive”.
YRPWHDIRTICCSTSSSTIE showed an amyloid nucleation score of 2.5 ± 0.063.
With IPIVRTLNLLASTLTPLCR the amyloid nucleation score was “inactive”.
With FLLSCK the amyloid nucleation score was “inactive”.
YVFFIVMASSCWHVHSYNYF gave an amyloid nucleation score of -0.437 ± 0.98.
Work on VFSNGSRDAWSFFNQKSNRF yielded an amyloid nucleation score of 0.193 ± 0.21.
In the case of IAFLAMHLFVASWFPR, the amyloid nucleation score is reported as “inactive”.
With FSYCSLWGKCVCDIFTNGQL the amyloid nucleation score was 2.81 ± 0.051.
In the case of LRSVFSRYFGQVHEFSRQRY, the amyloid nucleation score is reported as “inactive”.
For SRNYLVSPIDAPEQQSCVEE, the amyloid nucleation score was “inactive”.
In the case of DRGSMSHILASVSTFNVYIS, the amyloid nucleation score is reported as 1.2 ± 0.1.
With GEDVGPCMTESCRYAYLRYT the amyloid nucleation score was “inactive”.
With VGKLLVGTWWHGSYRSMSKR the amyloid nucleation score was “inactive”.
In the case of ILILFYLRFHNIRRYTCTFR, the amyloid nucleation score is reported as “inactive”.
YWIEAPIFYPLFTAIVKQAM showed an amyloid nucleation score of 0.294 ± 0.49.
With NFCLMLDVWINTFRDIIYWG the amyloid nucleation score was “inactive”.
With RVFNIEYMLECAFFRTIRD the amyloid nucleation score was “inactive”.
For CDTSFKIDELPYSASLHFAF, the amyloid nucleation score was “inactive”.
For CYSKYSS, the amyloid nucleation score was “inactive”.
For SQWWNVDPRSTQCASGAMRC, the amyloid nucleation score was “inactive”.
For DSICDTCYAVGCLPRVCWVV, the amyloid nucleation score was “inactive”.
In the case of AILCTIVCNASWAEEQSA, the amyloid nucleation score is reported as 1.09 ± 0.17.
In the case of GCFDVPNCVSFQSFRACGKG, the amyloid nucleation score is reported as “inactive”.
With DRAMFYDALDNARVISKLRG the amyloid nucleation score was “inactive”.
For FYYDRVTLRGNTNLGDLMHG, the amyloid nucleation score was 1.69 ± 0.076.
With DLHVLSVK the amyloid nucleation score was “inactive”.
For SLDFSSGDVKNLKCCNVLMK, the amyloid nucleation score was “inactive”.
FLAWYMTFMV gave an amyloid nucleation score of 0.036 ± 0.88.
For HQKKMRFALR, the amyloid nucleation score was “inactive”.
In the case of SYYVNVRYWSITCPIWGLSD, the amyloid nucleation score is reported as 2.29 ± 0.08.
With IFVRSLAQLGLIFDFHIFWE the amyloid nucleation score was “inactive”.
With SSTNSYTSSLVSVSLVGDGA the amyloid nucleation score was “inactive”.
With FSAPL the amyloid nucleation score was “inactive”.
For ITGGTPCGITTVWQKGAMG, the amyloid nucleation score was “inactive”.
Work on AVLCELVQDMFSLGVYVCHE yielded an amyloid nucleation score of 0.531 ± 0.32.
RCYVNYIRTYICAYCFAVNE showed an amyloid nucleation score of 2.39 ± 0.074.
With YSEFPPTSKQ the amyloid nucleation score was “inactive”.
In the case of KKSKRISLGR, the amyloid nucleation score is reported as “inactive”.
With DCLDNK the amyloid nucleation score was “inactive”.
With GLMLYTSMVGSYDDWPD the amyloid nucleation score was “inactive”.
For YIFFEWGINPHRGDYVFSFR, the amyloid nucleation score was “inactive”.
With YFRSLGLAIGCNR the amyloid nucleation score was “inactive”.
Substance SMYIIMVCSSVSCWYFNRGH has an amyloid nucleation score of 0.94 ± 0.18.
With FLIISCS the amyloid nucleation score was “inactive”.
With YTNALPAITFVVIGHLAIQ the amyloid nucleation score was 2.64 ± 0.068.
For LGWLLVTNWTSTYAGSLHDG, the amyloid nucleation score was “inactive”.
With LTSSEQDAITLTTCGISECA the amyloid nucleation score was “inactive”.
In the case of ASLRWVLRLCRNLHTSSMET, the amyloid nucleation score is reported as -0.824 ± 1.5.
For RLLLMIL, the amyloid nucleation score was “inactive”.
In the case of RDDMGLESKQDGEP, the amyloid nucleation score is reported as “inactive”.
